Data reported in publication PMC8523659 (Scientific Reports, 2021).
Numbering of substitutions follows the chain as printed. Names may count otherwise.

B1: single-domain VHH antibody Z18 (VHH)
VHH: QVQLVESGGGLVQAGDSLRLSCAASGRTFSGYAMGWFRQAPGKEREFVARINWSGTLTYYADSVKGRFTGSRDNAKNTVYLQMNSLKPEDTAVYYCAQRGDSGSNYDPSGYSYWGQGTQVTVSS
notes: pRA2 vector with N-terminal pelB signal peptide; also called wild-type Z18; source: E. coli BL21 (DE3), purified (Ni-NTA, SEC); not shown: hexa-histidine, C-terminal, kept
B2: Z18-Y114F (VHH)
VHH: B1 VHH with Y106F
notes: IMGT numbering; the methods describe vector and expression for Z18 and Z26; source: E. coli BL21 (DE3), purified (Ni-NTA, SEC)
B3: Z18-R50L/G78A/S133R (VHH)
VHH: B1 VHH with R45L, G70A, S112R
notes: as for B2
B4: Z18-I56V (VHH)
VHH: B1 VHH with I51V
notes: as for B2
B5: Z18-R50L (VHH)
VHH: B1 VHH with R45L
notes: as for B2
B6: Z18-G32D (VHH)
VHH: B1 VHH with G31D
notes: as for B2
B7: Z18-G78A (VHH)
VHH: B1 VHH with G70A
notes: as for B2
B8: single-domain VHH antibody Z26 (VHH)
VHH: B1 VHH with V2L, G31D, R45L, I51V, T56L, G70A, N77S, Y106F, S112R
notes: differs from Z18 at nine residues; pRA2 vector with N-terminal pelB signal peptide; also called wild-type Z26; source: E. coli BL21 (DE3), purified (Ni-NTA, SEC); not shown: hexa-histidine, C-terminal, kept
B9: Z18-T61L (VHH)
VHH: B1 VHH with T56L
notes: as for B2
B10: Z18-S133R (VHH)
VHH: B1 VHH with S112R
notes: as for B2
B11: Z18-N85S (VHH)
VHH: B1 VHH with N77S
notes: as for B2
B12: Z18-V2L (VHH)
VHH: B1 VHH with V2L
notes: as for B2
B13: Z18-G32D/R50L/G78A/S133R (VHH)
VHH: B1 VHH with G31D, R45L, G70A, S112R
notes: as for B2

What follows are binders tested against T1, human serum albumin (Homo sapiens, UniProt P02768) (assay: SPR; Biacore T200; HSA immobilised on CM5 chip by amine coupling (~1000 RU); increasing concentrations of antibodies injected at 30 μl/min; PBS with 0.05% Tween-20; global fit, 1:1 Langmuir model). Details: both partners purified.
T1 construct: human serum albumin (HSA), purchased from Sigma-Aldrich Japan; dissolved in phosphate buffer and dialysed; also called HSA; source: bought: Sigma-Aldrich Japan

Row | Kd [nM] | Binder
1 | 175 | B1

Biological target: T1, human serum albumin
Experiment: as above
Details: both partners purified
Remark: another data set of the same source

Row | Kd [nM] | koff [s⁻¹] | kon [M⁻¹ s⁻¹] | Binder
2 | 334 | 0.259 | 774000 | B1
3 | 12.9 | 0.096 | 7.45e+06 | B2
4 | 447 | 0.785 | 1.76e+06 | B3
5 | 296 | 0.22 | 741000 | B4
6 | 412 | 0.284 | 689000 | B5
7 | 172 | 0.12 | 696000 | B6
8 | 7110 | 1.1 | 155000 | B7
9 | 0.54 | 0.000816 | 1.51e+06 | B8
10 | 8.63 | 0.037 | 4.33e+06 | B9
11 | 67.2 | 0.078 | 1.16e+06 | B10
12 | 344 | 0.238 | 692000 | B11
13 | 366 | 0.276 | 754000 | B12
14 | 797 | 0.412 | 516000 | B13
